Changes are numbered by the printed parent chain. Several values for one entry are separate records, joined by “and”; a condition that tells them apart may be missing. Equal values may be shown once.
B1: AB-PG1-XG1-006 (antibody, V domains shown)
VH: QVQLVESGGGVVQPGRSLRLSCAASGFAFSRYGMHWVRQAPGKGLEWVAVIWYDGSNKYYADSVKGRFTISRDNSKNTQYLQMNSLRAEDTAVYYCARGGDFLYYYYYGMDVWGQGTTVTVSS
VL: DIQMTQSPSSLSASVGDRVTITCRASQGISNYLAWYQQKTGKVPKFLIYEASTLQSGVPSRFSGGGSGTDFTLTISSLQPEDVATYYCQNYNSAPFTFGPGTKVDIK
notes: also called XG-006; PRGX1-XG1-006
B2: PSMA 10.3 (antibody, V domains shown)
VH: QEQLVESGGGVVQPGRSLRLSCAASGFTFSTYGMHWVRQAPGKGLEWVAVTWHDGSNKYYADSVKGRFTISRDNSKNTLYLQMNSLRAEDTAVYYCARGGVGATYYYYYGMDVWGQGTTVTVSS
VL: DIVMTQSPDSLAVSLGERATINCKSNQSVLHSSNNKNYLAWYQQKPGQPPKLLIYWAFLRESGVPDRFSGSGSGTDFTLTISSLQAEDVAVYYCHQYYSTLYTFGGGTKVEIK
B3: AB-PG1-XG1-077 (antibody, V domains shown)
VH: QVQLVESGGGVVQPGRSLRLSCAASGFTFISYGMHWVRQAPGKGLEWVAVISYDGSNKYYADSVKGRFTISRDNSKNTLYLQMNSLRAEDTAVYYCARVLVGALYYYNYYGMDVWGQGTTVTVSS
VL: DIVMTQTPLSLSVTPGQPASISCKSSQSLLHSDGKTFLYWYLQKPGQPPQLLIYEVSNRFSGVPDRFSGSGSGTDFTLKISRVEAEDVGLYYCMQSIQLPLTFGGGTKVEIK
notes: also called PRGX1-XG1-077
B4: ^225Ac labeled mAb 026 (antibody, V domains shown)
VH: QVQLVESGGGVVQPGRSLRLSCAASGFTFSNYVMHWVRQAPGKGLEWVAIIWYDGSNKYYADSVKGRFTISRDNSKNTLYLQMNSLRAEDTAVYYCAGGYNWNYEYHYYGMDVWGQGTTVTVSS
VL: DIQMTQSPSSLSASVGDRVTITCRASQGITNYLAWFQQKPGKAPKSLIYAASSLQSGVPSKFSGSGSGTDFSLTISSLQPEDFATYYCQQYNSYPITFGQGTRLEIK
B5: AB-PG1-XG1-026 (antibody, V domains shown)
VH: B4 VH
VL: B4 VL
notes: also called XG-026; PRGX1-XG1-026
B6: AB-PG1-XG1-051 (antibody, V domains shown)
VH: QVQLVESGGGVVQPGRSLRLSCAASGFTFSSYGMHWVRQAPGKGLDWVAIIWHDGSNKYYADSVKGRFTISRDNSKKTLYLQMNSLRAEDTAVYYCARAWAYDYGDYEYYFGMDVWGQGTTVTVSS
VL: B4 VL with T30S, N31H, S72T, Y94F, I96L, Q100G, R103K, L104V
notes: also called XG-051; PRGX1-XG1-051
B7: AB-PG1-XG1-069 (antibody, V domains shown)
VH: EVQLVQSGAEVKKPGESLKISCKGSGYSFTSYWIGWVRQMPGKGLEWMGIIYPGDSDTRYSPSFQGQVTISADKSISTAYLQWSSLKASDTAMYYCARRMAAAGPFDYWGQGTLVTVSS
VL: GIVMTQSPATLSVSPGERATLSCRTSQSIGWNLAWYQQKPGQAPRLLIYGASSRTTGIPARFSGSGSGTEFTLTISSLQSEDSAVYYCQHYDNWPMCSFGQGTELEIK
notes: also called PRGX1-XG1-069

Legend:
[1] = target: T1, prostate specific membrane antigen (PSMA), full-length human (human, UniProt Q04609 1-750); assay: FACS, C4-2 cells
T1 construct: also called cell-surface PSMA; full-length PSMA
T1 sequence (Q04609 whole entry): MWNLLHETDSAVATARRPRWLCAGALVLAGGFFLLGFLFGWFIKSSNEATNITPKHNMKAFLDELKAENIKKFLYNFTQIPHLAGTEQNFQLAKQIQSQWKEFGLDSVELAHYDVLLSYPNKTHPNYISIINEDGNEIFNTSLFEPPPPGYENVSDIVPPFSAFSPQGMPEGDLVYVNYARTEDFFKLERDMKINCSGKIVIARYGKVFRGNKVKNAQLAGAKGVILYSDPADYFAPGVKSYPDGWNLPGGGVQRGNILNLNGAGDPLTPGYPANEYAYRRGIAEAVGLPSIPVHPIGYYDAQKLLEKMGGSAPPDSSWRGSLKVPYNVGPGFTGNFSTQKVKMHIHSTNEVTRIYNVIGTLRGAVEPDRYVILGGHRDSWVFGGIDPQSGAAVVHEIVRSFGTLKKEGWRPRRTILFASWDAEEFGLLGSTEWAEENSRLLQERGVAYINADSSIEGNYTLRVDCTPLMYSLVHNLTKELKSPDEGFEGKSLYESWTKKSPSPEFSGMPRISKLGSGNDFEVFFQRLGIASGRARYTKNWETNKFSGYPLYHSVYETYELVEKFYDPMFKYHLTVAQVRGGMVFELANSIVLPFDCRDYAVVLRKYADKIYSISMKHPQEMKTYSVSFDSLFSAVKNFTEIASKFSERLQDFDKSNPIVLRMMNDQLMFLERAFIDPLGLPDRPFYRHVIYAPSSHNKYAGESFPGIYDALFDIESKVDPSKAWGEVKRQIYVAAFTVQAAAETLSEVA

[2] = target: T2, recombinant soluble PSMA (rsPSMA) (human, UniProt Q04609 44-750); assay: cell-based or functional assay
T2 sequence (Q04609 44-750): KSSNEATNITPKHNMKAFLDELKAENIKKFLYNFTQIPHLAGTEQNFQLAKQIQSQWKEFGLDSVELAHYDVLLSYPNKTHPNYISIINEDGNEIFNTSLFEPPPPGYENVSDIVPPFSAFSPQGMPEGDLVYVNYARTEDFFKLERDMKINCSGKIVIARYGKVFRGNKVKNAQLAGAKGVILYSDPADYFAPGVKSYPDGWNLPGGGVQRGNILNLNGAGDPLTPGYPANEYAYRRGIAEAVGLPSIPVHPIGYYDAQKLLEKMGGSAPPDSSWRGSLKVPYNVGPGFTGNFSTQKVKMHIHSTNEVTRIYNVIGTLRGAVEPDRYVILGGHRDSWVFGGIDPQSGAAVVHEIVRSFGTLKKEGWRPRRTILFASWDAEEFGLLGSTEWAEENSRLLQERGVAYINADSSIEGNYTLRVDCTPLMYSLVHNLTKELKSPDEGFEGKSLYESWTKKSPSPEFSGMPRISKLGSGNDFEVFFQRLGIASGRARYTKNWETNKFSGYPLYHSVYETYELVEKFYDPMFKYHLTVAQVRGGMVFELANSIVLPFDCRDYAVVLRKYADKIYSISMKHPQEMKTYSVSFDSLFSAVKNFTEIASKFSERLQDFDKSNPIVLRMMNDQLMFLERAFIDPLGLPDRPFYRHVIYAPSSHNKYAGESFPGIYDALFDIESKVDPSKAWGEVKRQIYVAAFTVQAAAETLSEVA

[3] = target: T2, recombinant soluble PSMA (rsPSMA); assay: Biacore; Avg KD of purified 006
Protocol: (§1) To determine the kinetics and affinity of the antibodies, the antibodies in crude supernatants, in purified form and in bifunctional chelate modified forms were analyzed using a Biacore 3000 instrument (Biacore Inc., Piscataway, N.J.). Biacore 3000 is a fully automated surface plasmon resonance (SPR)-based biosensor system that is designed to provide real-time kinetic data from assay formats that require no tags or labeling of compounds for biomolecular interactions. It is ideal for screening crude supernatants.
(§2) The streptavidin-coated sensor chips (SA chips, Biacore) were used to capture biotinylated anti-human IgG antibody (Sigma, St. Louis, Mo.). The entire sensor chip surface was conditioned with five injections of conditioning solution (1 M NaCl, 50 mM NaOH) and equilibrated with PBS buffer containing 0.005% polysorbate 20. Two to three thousand resonance units (RU) of biotinylated anti-human IgG antibody (Sigma) were immobilized onto the SA chip followed by an injection of regeneration buffer (glycine-HCl, pH 2.2). […] For each antibody at one concentration, the chip was regenerated and equilibrated. […] Thermodynamic and kinetic rate constants of binding were calculated using the Biacore Evaluation software.

[4] = target: T2, recombinant soluble PSMA (rsPSMA); assay: Biacore, rsPSMA
Protocol: as §2

[5] = target: T1, prostate specific membrane antigen …; assay: FACS, 3T3-PSMA cells
Protocol: Control anti-human IgG (Caltag, Burlingame, Calif.) was used to establish background binding. After two washes in PBS, the cells were incubated with anti-human IgG (BD Pharmingen, San Diego, Calif.) for 30 minutes on ice. Cells were washed twice in PBS, resuspended in 250 μl PBS and analyzed by flow cytometry using a FACScan machine (Becton Dickinson, Franklin Lakes, N.J.) and CellQuest software. Viable cells were gated by forward scatter and side scatter parameters, and binding was quantified using histogram plots of mean fluorescence intensity (MFI) levels.

[6] = target: T1, prostate specific membrane antigen …; assay: lysate EIA, supernatant
[7] = target: T2, recombinant soluble PSMA (rsPSMA); assay: Biacore, captured mAb, rsPSMA in flow
Protocol: as §1, §2

[8] = target: T2, recombinant soluble PSMA (rsPSMA); assay: Biacore; Avg KD
Protocol: as §1, §2

[9] = target: T1, prostate specific membrane antigen …; assay: FACS, supernatant
[10] = target: T2, recombinant soluble PSMA (rsPSMA); assay: Biacore; Avg KD of purified 10.3
Protocol: as §1, §2

[11] = target: T1, prostate specific membrane antigen …; assay: cell-based or functional assay

Row | Binder | C4.2 FACS [1] | Kd [4] | koff [4] | kon [4] | AVG Max binding [5] | Lysate EIA [6] | PGNX FACS [9] | other results
1 | B1 | 9.5 | 0.48 nM | 6.4e-05 s⁻¹ | 130000 M⁻¹ s⁻¹ | 183 | 0.39 | 114 | IC50, folate hydrolase activity [2]: 9.34 µg/mL; Kd [3]: 0.514 nM; Kd [7]: 0.466 nM and 0.562 nM and 0.492 nM; koff [7]: 0.000137 s⁻¹ and 0.000127 s⁻¹ and 6.4e-05 s⁻¹; kon [7]: 294000 M⁻¹ s⁻¹ and 226000 M⁻¹ s⁻¹ and 130000 M⁻¹ s⁻¹; Kd [8]: 0.492 nM
2 | B2 |  | 1.9 nM | 0.000364 s⁻¹ | 190000 M⁻¹ s⁻¹ | 181 | 1.06 |  | Kd [10]: 0.205 nM; kon [7]: 190000 M⁻¹ s⁻¹ and 328000 M⁻¹ s⁻¹ and 296000 M⁻¹ s⁻¹; Kd [8]: 1.91 nM
3 | B3 | 12.4 | 1.6 nM | 0.000104 s⁻¹ | 60000 M⁻¹ s⁻¹ | 227 | 0.45 | 392 | 
4 | B4 |  |  |  |  |  |  |  | IC50, ^3H thymidine incorporation, C4-2 cells [11]: 0.12 nCi/mL; IC50, cytotoxicity on C4-2 and LNCaP cells [11]: < 1 nCi/mL; selectivity of killing vs. control antibody (HuIgG) [11]: > 50 fold; selectivity of killing vs. control mAb (HuM195) [11]: > 100 fold; selectivity of killing, C4-2 vs. PC3 [11]: > 50 fold
5 | B5 |  | 0.2 nM | 2.9e-05 s⁻¹ | 150000 M⁻¹ s⁻¹ | 148 |  |  | IC50, folate hydrolase activity [2]: 1.39 µg/mL
6 | B6 | 9.9 | 0.58 nM | 8.2e-05 s⁻¹ | 140000 M⁻¹ s⁻¹ | 202 | 0.48 | 83 | 
7 | B7 |  |  |  |  | 71 |  |  | binding result [4]: no binding
